Experimental findings from patent US20220002398A1 (ONCOONE RESEARCH AND DEVELOPMENT, published 2022) are described below.

One may read the EC50 as the concentration at which the effect is half-maximal. The Kd is the concentration at which binding is half-saturated.

Experiment [1] concerns the target T1, Recombinant human MIF, immobilized (transforming MIF to oxMIF) (human, UniProt P14174 2-115).
T1 construct: also called immobilized MIF (oxMIF); HuMIF
Description: ELISA, immobilized recombinant human MIF (oxMIF), protein L-HRP detection, 4-parameter fit. The method, then:
Recombinant human MIF (1 μg/ml) diluted in PBS was immobilized into microwell plates (transforming MIF to oxMIF according to Thiele M. et al., 2015, J Immunol 2015; 195:2343-2352). After blocking, the bispecific antibodies were added to the plates at different concentrations. Bound bispecific antibodies were detected using protein L-HRP conjugate. Plates were developed by adding TMB and chromogenic reaction was stopped with H₂SO₄. OD was measured at 450 nm.
EC50 values of the binding curves, which reflect rough KD estimates, were calculated by 4-parameter fit and are shown in Table 5.
A general note: ELISA stands for enzyme-linked immunosorbent assay.

The target of experiment [2] is T1, Recombinant human MIF, immobilized …. Description: SPR, Biacore T200, HuMIF immobilized on CM5 chip, single cycle kinetics, 1:1 Langmuir model. Here is the method:
The affinity of the antibodies was determined using a Biacore™ T200 device. HuMIF was immobilized onto CM5 sensor chips and anti-oxMIF bispecific entities were injected at different concentrations in running buffer (HBS-EP plus 0.1% BSA) to generate single cycle kinetic profiles.

Experiment [3] has as its target T2, native CD3 on CD3-positive Jurkat T cells (UniProt P07766 23-207; P04234 22-171; P09693 23-182).
T2 construct: whole, on cells; also called functional CD3 (CD3+)
Put plainly: flow cytometry on viable CD3+ Jurkat T cells, antibody at 70 nM, goat anti-human IgG (H+L) Alexa Fluor 488. Here is the method:
CD3 positive Jurkat T-cells, which express functional CD3 (CD3+) were incubated with bispecific antibodies, C0008 (anti-oxMIF monospecific control antibody), a non-specific isotype control antibody (Isotype) at a concentration of 70 nM or without antibody (secondary ab only). Bound antibodies were detected by a goat anti-human IgG (H+L) Alexa-Fluor 488 conjugate (secondary antibody). 7AAD was used to label dead cells and samples were analysed by FACS.

T2 sequence (P07766 23-207, chain 1 of 3): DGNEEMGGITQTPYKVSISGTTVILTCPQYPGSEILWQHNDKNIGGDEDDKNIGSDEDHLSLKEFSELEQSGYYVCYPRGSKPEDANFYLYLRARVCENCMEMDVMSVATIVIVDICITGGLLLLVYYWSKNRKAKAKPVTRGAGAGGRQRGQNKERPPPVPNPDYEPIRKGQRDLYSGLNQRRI
T2 sequence (P04234 22-171, chain 2 of 3): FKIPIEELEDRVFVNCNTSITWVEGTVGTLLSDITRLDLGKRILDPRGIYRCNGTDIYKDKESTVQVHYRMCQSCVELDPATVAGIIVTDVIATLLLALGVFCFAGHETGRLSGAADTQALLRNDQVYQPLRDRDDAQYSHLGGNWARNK
T2 sequence (P09693 23-182, chain 3 of 3): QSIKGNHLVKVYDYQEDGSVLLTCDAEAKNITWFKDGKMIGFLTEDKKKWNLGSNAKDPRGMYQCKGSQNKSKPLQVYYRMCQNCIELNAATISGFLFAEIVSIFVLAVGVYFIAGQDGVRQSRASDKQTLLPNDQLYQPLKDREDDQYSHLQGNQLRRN
T1 sequence (P14174 2-115 limits assumed): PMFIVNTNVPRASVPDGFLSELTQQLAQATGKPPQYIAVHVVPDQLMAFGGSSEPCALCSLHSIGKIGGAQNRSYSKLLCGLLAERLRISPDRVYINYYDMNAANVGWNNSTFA

B1: C0037 (Anti-oxMIF Fab fused to two anti-CD3 scFv, format: Fab-(scFv)2) (bispecific antibody)
heavy: EVQLLESGGGLVQPGGSLRLSCAASGFTFSIYSMNWVRQAPGKGLEWVSSIGSSGGTTYYADSVKGRFTISRDNSKNTLYLQMNSLRAEDTAVYYCAGSQWLYGMDVWGQGTTVTVSSASTKGPSVFPLAPSSKSTSGGTAALGCLVKDYFPEPVTVSWNSGALTSGVHTFPAVLQSSGLYSLSSVVTVPSSSLGTQTYICNVNHKPSNTKVDKRVEPKSCGGGGSGGGGSGGGGSQVQLVQSGAEVKKPGASVKVSCKASGYTFTRYTMHWVRQAPGQGLEWMGYINPSRGYTNYNQKFKDRVTLTTDKSSSTAYMELSSLRSEDTAVYYCARYYDDHYSLDYWGQGTLVTVSSGGSGGSGGSGGSGGSDIQMTQSPSSLSASVGDRVTITCSASSSVSYMNWYQQKPGKAPKRLIYDTSKLASGVPSRFSGSGSGTDFTLTISSLQPEDFATYYCQQWSSNPFTFGQGTKLEIKAAAEQKLISEEDLAAHHHHHH
light: DIQMTQSPSSLSASVGDRVTITCRSSQRIMTYLNWYQQKPGKAPKLLIFVASHSQSGVPSRFRGSGSETDFTLTISGLQPEDSATYYCQQSFWTPLTFGGGTKVEIKRTVAAPSVFIFPPSDEQLKSGTASVVCLLNNFYPREAKVQWKVDNALQSGNSQESVTEQDSKDSTYSLSSTLTLSKADYEKHKVYACEVTHQGLSSPVTKSFNRGECGGGSGGGSGGGSQVQLVQSGAEVKKPGASVKVSCKASGYTFTRYTMHWVRQAPGQGLEWMGYINPSRGYTNYNQKFKDRVTLTTDKSSSTAYMELSSLRSEDTAVYYCARYYDDHYSLDYWGQGTLVTVSSGGSGGSGGSGGSGGSDIQMTQSPSSLSASVGDRVTITCSASSSVSYMNWYQQKPGKAPKRLIYDTSKLASGVPSRFSGSGSGTDFTLTISSLQPEDFATYYCQQWSSNPFTFGQGTKLEIKASAWSHPQFEK
Turning to B1, the EC50 in experiment [1] came out at 3.4 nM. Besides, in experiment [2], the Kd is 5.9 nM.

B2: C0008 (full anti-oxMIF IgG, IgG1) (antibody, V domains shown)
VH: EVQLLESGGGLVQPGGSLRLSCAASGFTFSIYSMNWVRQAPGKGLEWVSSIGSSGGTTYYADSVKGRFTISRDNSKNTLYLQMNSLRAEDTAVYYCAGSQWLYGMDVWGQGTTVTVSS
VL: DIQMTQSPSSLSASVGDRVTITCRSSQRIMTYLNWYQQKPGKAPKLLIFVASHSQSGVPSRFRGSGSETDFTLTISGLQPEDSATYYCQQSFWTPLTFGGGTKVEIKR
notes: Monospecific control antibody; also called anti-oxMIF monospecific control antibody
B2: the binding result in experiment [3] is “no binding (tested: 70 nM)”.

B3: C0032 (Anti-oxMIF-scFv fused to an anti-CD3-scFv, BiTE) (bispecific antibody)
chain: DIQMTQSPSSLSASVGDRVTITCRSSQRIMTYLNWYQQKPGKAPKLLIFVASHSQSGVPSRFRGSGSETDFTLTISGLQPEDSATYYCQQSFWTPLTFGGGTKVEIKGGGGSGGGGSGGGGSEVQLLESGGGLVQPGGSLRLSCAASGFTFSIYSMNWVRQAPGKGLEWVSSIGSSGGTTYYADSVKGRFTISRDNSKNTLYLQMNSLRAEDTAVYYCAGSQWLYGMDVWGQGTTVTVSSGGGGSQVQLVQSGAEVKKPGASVKVSCKASGYTFTRYTMHWVRQAPGQGLEWMGYINPSRGYTNYNQKFKDRVTLTTDKSSSTAYMELSSLRSEDTAVYYCARYYDDHYSLDYWGQGTLVTVSSGGSGGSGGSGGSGGSDIQMTQSPSSLSASVGDRVTITCSASSSVSYMNWYQQKPGKAPKRLIYDTSKLASGVPSRFSGSGSGTDFTLTISSLQPEDFATYYCQQWSSNPFTFGQGTKLEIKAAAEQKLISEEDLSAWSHPQFEK
notes: also called anti-oxMIF/CD3 BiTE
Regarding B3, the EC50 in experiment [1] turned out to be 4 nM. Also, the Kd in experiment [2] was determined as 4.3 nM. Moreover, the binding result in experiment [3] was “binds”.

B4: C0039 (Full anti-oxMIF IgG with anti-CD3 scFv fused to light chain, IgG(lc)-scFv) (bispecific antibody)
heavy: not shown
light: DIQMTQSPSSLSASVGDRVTITCRSSQRIMTYLNWYQQKPGKAPKLLIFVASHSQSGVPSRFRGSGSETDFTLTISGLQPEDSATYYCQQSFWTPLTFGGGTKVEIKRTVAAPSVFIFPPSDEQLKSGTASVVCLLNNFYPREAKVQWKVDNALQSGNSQESVTEQDSKDSTYSLSSTLTLSKADYEKHKVYACEVTHQGLSSPVTKSFNRGECGGGGSGGGGSGGGGSQVQLVQSGAEVKKPGASVKVSCKASGYTFTRYTMHWVRQAPGQGLEWMGYINPSRGYTNYNQKFKDRVTLTTDKSSSTAYMELSSLRSEDTAVYYCARYYDDHYSLDYWGQGTLVTVSSGGSGGSGGSGGSGGSDIQMTQSPSSLSASVGDRVTITCSASSSVSYMNWYQQKPGKAPKRLIYDTSKLASGVPSRFSGSGSGTDFTLTISSLQPEDFATYYCQQWSSNPFTFGQGTKLEIK
notes: also called IgG(Ic)-scFv
On to B4, for which the EC50 in experiment [1] worked out at 0.3 nM. The Kd in experiment [2] came out at 1 nM. In addition, the binding result in experiment [3] is listed as “binds”.

B5: C0033 (Variable domains of anti-oxMIF and anti-CD3 fused in a row (VL1-VH2-VL2-VH1, TandAb)) (bispecific antibody)
chain: DIQMTQSPSSLSASVGDRVTITCSASSSVSYMNWYQQKPGKAPKRLIYDTSKLASGVPSRFSGSGSGTDFTLTISSLQPEDFATYYCQQWSSNPFTFGQGTKLEIKGGSGGSEVQLLESGGGLVQPGGSLRLSCAASGFTFSIYSMNWVRQAPGKGLEWVSSIGSSGGTTYYADSVKGRFTISRDNSKNTLYLQMNSLRAEDTAVYYCAGSQWLYGMDVWGQGTTVTVSSGGSGGSDIQMTQSPSSLSASVGDRVTITCRSSQRIMTYLNWYQQKPGKAPKLLIFVASHSQSGVPSRFRGSGSETDFTLTISGLQPEDSATYYCQQSFWTPLTFGGGTKVEIKGGSGGSQVQLVQSGAEVKKPGASVKVSCKASGYTFTRYTMHWVRQAPGQGLEWMGYINPSRGYTNYNQKFKDRVTLTTDKSSSTAYMELSSLRSEDTAVYYCARYYDDHYSLDYWGQGTLVTVSSAAAEQKLISEEDLSAWSHPQFEK
On to B5, for which the 50% effective concentration (EC50) in experiment [1] was found to be 1.9 nM. In experiment [2], the Kd turned out to be 4.8 nM.

B6: C0006 (Anti-oxMIF/CD3 Crossmab (CH1-CL), Crossmab) (bispecific antibody, human IgG1, kappa)
light 1: DIQMTQSPSSLSASVGDRVTITCRSSQRIMTYLNWYQQKPGKAPKLLIFVASHSQSGVPSRFRGSGSETDFTLTISGLQPEDSATYYCQQSFWTPLTFGGGTKVEIKRTVAAPSVFIFPPSDEQLKSGTASVVCLLNNFYPREAKVQWKVDNALQSGNSQESVTEQDSKDSTYSLSSTLTLSKADYEKHKVYACEVTHQGLSSPVTKSFNRGEC
heavy 1: not shown
heavy 2: not shown
light 2: DIQMTQSPSSLSASVGDRVTITCSASSSVSYMNWYQQKPGKAPKRLIYDTSKLASGVPSRFSGSGSGTDFTLTISSLQPEDFATYYCQQWSSNPFTFGQGTKLEIKSSASTKGPSVFPLAPSSKSTSGGTAALGCLVKDYFPEPVTVSWNSGALTSGVHTFPAVLQSSGLYSLSSVVTVPSSSLGTQTYICNVNHKPSNTKVDKKVEPKSC
As for B6, the EC50 in experiment [1] is 4.6 nM. For the same molecule, in experiment [2], the Kd stood at 7.2 nM. For the same molecule, in experiment [3], the binding result was “binds”.

B7: C0007 (Full anti-oxMIF IgG with anti-CD3 scFv fused to heavy chain, v IgG1-scFv fusion) (bispecific antibody)
heavy: not shown
light: B6 light 1
On to B7, for which, in experiment [1], the EC50 was 0.3 nM. Also, the Kd in experiment [2] is 0.61 nM. The binding result in experiment [3] is on record as “binds”.

B8: C0036 (Anti-oxMIF Fab fused to anti-CD3 scFv (HC); format: Fab-scFv) (bispecific antibody)
heavy: B1 heavy
light: B6 light 1
B8: in experiment [1], the EC50 stood at 2.3 nM. In addition, the Kd in experiment [2] was found to be 2.3 nM.

B9: C0038 (Anti-oxMIF Fab and anti-CD3 scFv fused to Fc, Fab-scFv-Fc) (bispecific antibody, human IgG1, kappa)
light: B6 light 1
heavy: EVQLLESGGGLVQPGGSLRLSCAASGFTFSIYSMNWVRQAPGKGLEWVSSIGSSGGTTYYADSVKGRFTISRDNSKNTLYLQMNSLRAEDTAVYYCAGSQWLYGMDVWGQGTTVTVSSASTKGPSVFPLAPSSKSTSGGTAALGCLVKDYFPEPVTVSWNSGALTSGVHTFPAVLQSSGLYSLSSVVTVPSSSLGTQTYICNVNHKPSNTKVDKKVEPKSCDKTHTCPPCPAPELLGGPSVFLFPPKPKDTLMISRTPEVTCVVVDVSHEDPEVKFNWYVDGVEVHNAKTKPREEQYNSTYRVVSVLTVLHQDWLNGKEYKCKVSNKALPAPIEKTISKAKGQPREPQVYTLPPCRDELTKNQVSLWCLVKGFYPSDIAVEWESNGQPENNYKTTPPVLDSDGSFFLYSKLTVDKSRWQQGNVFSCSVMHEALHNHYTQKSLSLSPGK
chain: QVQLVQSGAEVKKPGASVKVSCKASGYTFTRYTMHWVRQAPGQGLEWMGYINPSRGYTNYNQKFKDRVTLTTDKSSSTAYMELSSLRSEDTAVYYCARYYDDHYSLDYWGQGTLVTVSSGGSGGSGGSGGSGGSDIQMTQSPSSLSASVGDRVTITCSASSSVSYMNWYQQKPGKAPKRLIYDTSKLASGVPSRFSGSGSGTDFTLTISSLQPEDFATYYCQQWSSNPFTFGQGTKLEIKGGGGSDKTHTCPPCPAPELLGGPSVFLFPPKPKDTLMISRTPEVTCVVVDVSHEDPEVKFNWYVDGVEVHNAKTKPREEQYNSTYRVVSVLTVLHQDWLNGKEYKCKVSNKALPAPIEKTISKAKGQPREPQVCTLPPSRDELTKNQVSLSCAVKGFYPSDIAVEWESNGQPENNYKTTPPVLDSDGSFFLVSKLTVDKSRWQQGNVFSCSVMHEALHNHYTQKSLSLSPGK
Turning to B9, the EC50 in experiment [1] came to 4.6 nM. The Kd in experiment [2] amounted to 9.4 nM.
